In article PMC7035355:

Biological target: FBW7 (UniProt Q969H0)
Assay: co-immunoprecipitation, immunoblot
Conditions: reference: wild type Mcl-1; sites S159

binding against the reference: weaker
Substance: Mcl-1 (from UniProt Q07820) S159A
